Laboratory results: IntAct's records for PubMed 17229891

Target: 1433b_human YWHAB (UniProt P31946)
Sequence of UniProt P31946 (P31946 whole entry): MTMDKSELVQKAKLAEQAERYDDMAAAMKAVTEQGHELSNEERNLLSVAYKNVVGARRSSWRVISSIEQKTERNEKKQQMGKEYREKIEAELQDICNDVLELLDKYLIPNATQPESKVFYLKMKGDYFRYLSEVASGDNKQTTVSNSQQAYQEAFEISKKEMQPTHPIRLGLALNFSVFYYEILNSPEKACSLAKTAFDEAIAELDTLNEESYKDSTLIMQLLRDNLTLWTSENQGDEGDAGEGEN

effect of a mutation on the interaction: decreasing interaction
Substance: Dual specificity tyrosine-phosphorylation-regulated kinase 1A (Homo sapiens) (from UniProt Q13627-2) S520A
